From patent publication US20150315260A1 (Sanofi, published 2015) come the findings set out here.

Holding throughout (assay): cell-based or functional assay
The target of test [1] is human glucagon receptor (human, UniProt P47871 26-477).
Test [2] deals with T1, human GIP receptor (human, UniProt P48546 22-466).
T1 sequence (looked up): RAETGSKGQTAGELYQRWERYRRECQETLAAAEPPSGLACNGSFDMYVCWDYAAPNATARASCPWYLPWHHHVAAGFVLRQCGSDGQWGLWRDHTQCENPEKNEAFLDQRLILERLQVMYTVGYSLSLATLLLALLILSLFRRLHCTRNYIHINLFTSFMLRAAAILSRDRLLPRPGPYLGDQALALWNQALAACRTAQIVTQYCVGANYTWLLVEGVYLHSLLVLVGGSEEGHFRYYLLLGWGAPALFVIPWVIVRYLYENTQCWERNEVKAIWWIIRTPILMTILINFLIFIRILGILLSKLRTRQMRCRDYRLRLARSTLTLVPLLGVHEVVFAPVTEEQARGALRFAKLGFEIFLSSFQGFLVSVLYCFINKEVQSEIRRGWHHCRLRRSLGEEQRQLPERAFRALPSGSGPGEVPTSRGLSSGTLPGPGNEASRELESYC

Test [3] concerns the target human GLP-1 receptor (human, UniProt P43220 24-463).

Starred links: 1 amine or outer side, 2 acyl side, 3 side chain; linkers in the order of their positions; H or OH if unused. Non-standard residues stand in square brackets, D forms with d. Groups on a side chain read outwards from the residue. No end group written: not given here. *: point of attachment. γGlu = O=C(O)[C@H](CCC(=O)[*:2])N[*:1]; Stearoyl = CCCCCCCCCCCCCCCCCC(=O)*; Palmitoyl = CCCCCCCCCCCCCCCC(=O)*; AEEA = NCCOCCOCC(=O)O; Aib = CC(C)(N)C(=O)O

Chain of human glucagon receptor (P47871 26-477): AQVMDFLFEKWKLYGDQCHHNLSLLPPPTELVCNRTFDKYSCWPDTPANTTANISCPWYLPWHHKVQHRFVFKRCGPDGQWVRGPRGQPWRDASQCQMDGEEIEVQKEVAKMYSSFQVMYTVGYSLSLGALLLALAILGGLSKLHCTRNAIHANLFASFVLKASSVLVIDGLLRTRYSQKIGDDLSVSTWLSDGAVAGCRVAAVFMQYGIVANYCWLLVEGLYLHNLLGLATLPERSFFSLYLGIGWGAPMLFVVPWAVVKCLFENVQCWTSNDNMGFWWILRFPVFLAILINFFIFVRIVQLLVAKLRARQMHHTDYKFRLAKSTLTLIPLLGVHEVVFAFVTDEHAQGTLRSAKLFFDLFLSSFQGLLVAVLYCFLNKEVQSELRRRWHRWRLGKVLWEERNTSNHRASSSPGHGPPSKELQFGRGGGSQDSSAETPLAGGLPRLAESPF

B1: exendin-4 derivative SEQ ID NO: 6 (peptide)
peptide: H[Aib]QGTFTSDLSKQK([γGlu-Stearoyl])DEQRAKLFIEWL[Aib]A[dA]GPSSGAPPPS-NH2
modifications: N-terminus assumed
SMILES: CCCCCCCCCCCCCCCCCC(=O)N[C@@H](CCC(=O)NCCCC[C@H](NC(=O)[C@H](CCC(N)=O)NC(=O)[C@H](CCCCN)NC(=O)[C@H](CO)NC(=O)[C@H](CC(C)C)NC(=O)[C@H](CC(=O)O)NC(=O)[C@H](CO)NC(=O)[C@@H](NC(=O)[C@H](Cc1ccccc1)NC(=O)[C@@H](NC(=O)CNC(=O)[C@H](CCC(N)=O)NC(=O)C(C)(C)NC(=O)[C@@H](N)Cc1c[nH]cn1)[C@@H](C)O)[C@@H](C)O)C(=O)N[C@@H](CC(=O)O)C(=O)N[C@@H](CCC(=O)O)C(=O)N[C@@H](CCC(N)=O)C(=O)N[C@@H](CCCNC(=N)N)C(=O)N[C@@H](C)C(=O)N[C@@H](CCCCN)C(=O)N[C@@H](CC(C)C)C(=O)N[C@@H](Cc1ccccc1)C(=O)N[C@H](C(=O)N[C@@H](CCC(=O)O)C(=O)N[C@@H](Cc1c[nH]c2ccccc12)C(=O)N[C@@H](CC(C)C)C(=O)NC(C)(C)C(=O)N[C@@H](C)C(=O)N[C@H](C)C(=O)NCC(=O)N1CCC[C@H]1C(=O)N[C@@H](CO)C(=O)N[C@@H](CO)C(=O)NCC(=O)N[C@@H](C)C(=O)N1CCC[C@H]1C(=O)N1CCC[C@H]1C(=O)N1CCC[C@H]1C(=O)N[C@@H](CO)C(N)=O)[C@@H](C)CC)C(=O)O
For B1, in test [1], the “EC50 hGlucagon-R (cAMP formation)” value was determined as 0.136 nM. Moreover, the “EC50 hGIP-R (cAMP formation)” value in test [2] was found to be 2.76 nM. Further, the “EC50 hGLP-1R (cAMP formation)” value in test [3] came out at 0.0141 nM.

B2: exendin-4 derivative SEQ ID NO: 16 (peptide)
peptide: H[Aib]QGTFTSDLSKQK([AEEA-AEEA-γGlu-Palmitoyl])DEQRAKLFIEWL[Aib]AGGPSSGAPPPS-NH2
modifications: N-terminus assumed
SMILES: CCCCCCCCCCCCCCCC(=O)N[C@@H](CCC(=O)NCCOCCOCC(=O)NCCOCCOCC(=O)NCCCC[C@H](NC(=O)[C@H](CCC(N)=O)NC(=O)[C@H](CCCCN)NC(=O)[C@H](CO)NC(=O)[C@H](CC(C)C)NC(=O)[C@H](CC(=O)O)NC(=O)[C@H](CO)NC(=O)[C@@H](NC(=O)[C@H](Cc1ccccc1)NC(=O)[C@@H](NC(=O)CNC(=O)[C@H](CCC(N)=O)NC(=O)C(C)(C)NC(=O)[C@@H](N)Cc1c[nH]cn1)[C@@H](C)O)[C@@H](C)O)C(=O)N[C@@H](CC(=O)O)C(=O)N[C@@H](CCC(=O)O)C(=O)N[C@@H](CCC(N)=O)C(=O)N[C@@H](CCCNC(=N)N)C(=O)N[C@@H](C)C(=O)N[C@@H](CCCCN)C(=O)N[C@@H](CC(C)C)C(=O)N[C@@H](Cc1ccccc1)C(=O)N[C@H](C(=O)N[C@@H](CCC(=O)O)C(=O)N[C@@H](Cc1c[nH]c2ccccc12)C(=O)N[C@@H](CC(C)C)C(=O)NC(C)(C)C(=O)N[C@@H](C)C(=O)NCC(=O)NCC(=O)N1CCC[C@H]1C(=O)N[C@@H](CO)C(=O)N[C@@H](CO)C(=O)NCC(=O)N[C@@H](C)C(=O)N1CCC[C@H]1C(=O)N1CCC[C@H]1C(=O)N1CCC[C@H]1C(=O)N[C@@H](CO)C(N)=O)[C@@H](C)CC)C(=O)O
For B2, the “EC50 hGlucagon-R (cAMP formation)” value in test [1] was 0.042 nM. In test [2], the “EC50 hGIP-R (cAMP formation)” value came out at 1.87 nM. The “EC50 hGLP-1R (cAMP formation)” value in test [3] turned out to be 0.002 nM.

B3: exendin-4 derivative SEQ ID NO: 7 (peptide)
peptide: H[Aib]QGTFTSDLSKQK([γGlu-γGlu-Palmitoyl])DEQRAKLFIEWL[Aib]A[dA]GPSSGAPPPS-NH2
modifications: N-terminus assumed
SMILES: CCCCCCCCCCCCCCCC(=O)N[C@@H](CCC(=O)N[C@@H](CCC(=O)NCCCC[C@H](NC(=O)[C@H](CCC(N)=O)NC(=O)[C@H](CCCCN)NC(=O)[C@H](CO)NC(=O)[C@H](CC(C)C)NC(=O)[C@H](CC(=O)O)NC(=O)[C@H](CO)NC(=O)[C@@H](NC(=O)[C@H](Cc1ccccc1)NC(=O)[C@@H](NC(=O)CNC(=O)[C@H](CCC(N)=O)NC(=O)C(C)(C)NC(=O)[C@@H](N)Cc1c[nH]cn1)[C@@H](C)O)[C@@H](C)O)C(=O)N[C@@H](CC(=O)O)C(=O)N[C@@H](CCC(=O)O)C(=O)N[C@@H](CCC(N)=O)C(=O)N[C@@H](CCCNC(=N)N)C(=O)N[C@@H](C)C(=O)N[C@@H](CCCCN)C(=O)N[C@@H](CC(C)C)C(=O)N[C@@H](Cc1ccccc1)C(=O)N[C@H](C(=O)N[C@@H](CCC(=O)O)C(=O)N[C@@H](Cc1c[nH]c2ccccc12)C(=O)N[C@@H](CC(C)C)C(=O)NC(C)(C)C(=O)N[C@@H](C)C(=O)N[C@H](C)C(=O)NCC(=O)N1CCC[C@H]1C(=O)N[C@@H](CO)C(=O)N[C@@H](CO)C(=O)NCC(=O)N[C@@H](C)C(=O)N1CCC[C@H]1C(=O)N1CCC[C@H]1C(=O)N1CCC[C@H]1C(=O)N[C@@H](CO)C(N)=O)[C@@H](C)CC)C(=O)O)C(=O)O
For the molecule B3, in test [1], the “EC50 hGlucagon-R (cAMP formation)” value came out at 0.101 nM. For the same molecule, in test [2], the “EC50 hGIP-R (cAMP formation)” value worked out at 7.62 nM. Also, the “EC50 hGLP-1R (cAMP formation)” value in test [3] was determined as 0.0034 nM.

B4: exendin-4 derivative SEQ ID NO: 14 (peptide)
peptide: H[Aib]QGTFTSDLSKQK([γGlu-γGlu-Palmitoyl])DEQRAKLFIEWL[Aib]K[dA]GPSSGAPPPS-NH2
modifications: N-terminus assumed
SMILES: CCCCCCCCCCCCCCCC(=O)N[C@@H](CCC(=O)N[C@@H](CCC(=O)NCCCC[C@H](NC(=O)[C@H](CCC(N)=O)NC(=O)[C@H](CCCCN)NC(=O)[C@H](CO)NC(=O)[C@H](CC(C)C)NC(=O)[C@H](CC(=O)O)NC(=O)[C@H](CO)NC(=O)[C@@H](NC(=O)[C@H](Cc1ccccc1)NC(=O)[C@@H](NC(=O)CNC(=O)[C@H](CCC(N)=O)NC(=O)C(C)(C)NC(=O)[C@@H](N)Cc1c[nH]cn1)[C@@H](C)O)[C@@H](C)O)C(=O)N[C@@H](CC(=O)O)C(=O)N[C@@H](CCC(=O)O)C(=O)N[C@@H](CCC(N)=O)C(=O)N[C@@H](CCCNC(=N)N)C(=O)N[C@@H](C)C(=O)N[C@@H](CCCCN)C(=O)N[C@@H](CC(C)C)C(=O)N[C@@H](Cc1ccccc1)C(=O)N[C@H](C(=O)N[C@@H](CCC(=O)O)C(=O)N[C@@H](Cc1c[nH]c2ccccc12)C(=O)N[C@@H](CC(C)C)C(=O)NC(C)(C)C(=O)N[C@@H](CCCCN)C(=O)N[C@H](C)C(=O)NCC(=O)N1CCC[C@H]1C(=O)N[C@@H](CO)C(=O)N[C@@H](CO)C(=O)NCC(=O)N[C@@H](C)C(=O)N1CCC[C@H]1C(=O)N1CCC[C@H]1C(=O)N1CCC[C@H]1C(=O)N[C@@H](CO)C(N)=O)[C@@H](C)CC)C(=O)O)C(=O)O
On to B4, for which the “EC50 hGlucagon-R (cAMP formation)” value in test [1] was 0.194 nM. For the same molecule, the “EC50 hGIP-R (cAMP formation)” value in test [2] was determined as 6.53 nM. For the same molecule, the “EC50 hGLP-1R (cAMP formation)” value in test [3] came out at 0.0041 nM.

B5: exendin-4 derivative SEQ ID NO: 17 (peptide)
peptide: H[Aib]QGTFTSDLSKQK([AEEA-AEEA-γGlu-Stearoyl])DEQRAKLFIEWL[Aib]AGGPSSGAPPPS-NH2
modifications: N-terminus assumed
SMILES: CCCCCCCCCCCCCCCCCC(=O)N[C@@H](CCC(=O)NCCOCCOCC(=O)NCCOCCOCC(=O)NCCCC[C@H](NC(=O)[C@H](CCC(N)=O)NC(=O)[C@H](CCCCN)NC(=O)[C@H](CO)NC(=O)[C@H](CC(C)C)NC(=O)[C@H](CC(=O)O)NC(=O)[C@H](CO)NC(=O)[C@@H](NC(=O)[C@H](Cc1ccccc1)NC(=O)[C@@H](NC(=O)CNC(=O)[C@H](CCC(N)=O)NC(=O)C(C)(C)NC(=O)[C@@H](N)Cc1c[nH]cn1)[C@@H](C)O)[C@@H](C)O)C(=O)N[C@@H](CC(=O)O)C(=O)N[C@@H](CCC(=O)O)C(=O)N[C@@H](CCC(N)=O)C(=O)N[C@@H](CCCNC(=N)N)C(=O)N[C@@H](C)C(=O)N[C@@H](CCCCN)C(=O)N[C@@H](CC(C)C)C(=O)N[C@@H](Cc1ccccc1)C(=O)N[C@H](C(=O)N[C@@H](CCC(=O)O)C(=O)N[C@@H](Cc1c[nH]c2ccccc12)C(=O)N[C@@H](CC(C)C)C(=O)NC(C)(C)C(=O)N[C@@H](C)C(=O)NCC(=O)NCC(=O)N1CCC[C@H]1C(=O)N[C@@H](CO)C(=O)N[C@@H](CO)C(=O)NCC(=O)N[C@@H](C)C(=O)N1CCC[C@H]1C(=O)N1CCC[C@H]1C(=O)N1CCC[C@H]1C(=O)N[C@@H](CO)C(N)=O)[C@@H](C)CC)C(=O)O
Turning to B5, the “EC50 hGlucagon-R (cAMP formation)” value in test [1] stood at 0.0162 nM. The “EC50 hGIP-R (cAMP formation)” value in test [2] came to 0.906 nM. For the same molecule, the “EC50 hGLP-1R (cAMP formation)” value in test [3] worked out at 0.0028 nM.

B6: exendin-4 derivative SEQ ID NO: 18 (peptide)
peptide: H[Aib]QGTFTSDLSKQK([AEEA-AEEA-AEEA-Stearoyl])DEQRAKLFIEWL[Aib]AGGPSSGAPPPS-NH2
modifications: N-terminus assumed
SMILES: CCCCCCCCCCCCCCCCCC(=O)NCCOCCOCC(=O)NCCOCCOCC(=O)NCCOCCOCC(=O)NCCCC[C@H](NC(=O)[C@H](CCC(N)=O)NC(=O)[C@H](CCCCN)NC(=O)[C@H](CO)NC(=O)[C@H](CC(C)C)NC(=O)[C@H](CC(=O)O)NC(=O)[C@H](CO)NC(=O)[C@@H](NC(=O)[C@H](Cc1ccccc1)NC(=O)[C@@H](NC(=O)CNC(=O)[C@H](CCC(N)=O)NC(=O)C(C)(C)NC(=O)[C@@H](N)Cc1c[nH]cn1)[C@@H](C)O)[C@@H](C)O)C(=O)N[C@@H](CC(=O)O)C(=O)N[C@@H](CCC(=O)O)C(=O)N[C@@H](CCC(N)=O)C(=O)N[C@@H](CCCNC(=N)N)C(=O)N[C@@H](C)C(=O)N[C@@H](CCCCN)C(=O)N[C@@H](CC(C)C)C(=O)N[C@@H](Cc1ccccc1)C(=O)N[C@H](C(=O)N[C@@H](CCC(=O)O)C(=O)N[C@@H](Cc1c[nH]c2ccccc12)C(=O)N[C@@H](CC(C)C)C(=O)NC(C)(C)C(=O)N[C@@H](C)C(=O)NCC(=O)NCC(=O)N1CCC[C@H]1C(=O)N[C@@H](CO)C(=O)N[C@@H](CO)C(=O)NCC(=O)N[C@@H](C)C(=O)N1CCC[C@H]1C(=O)N1CCC[C@H]1C(=O)N1CCC[C@H]1C(=O)N[C@@H](CO)C(N)=O)[C@@H](C)CC
Take B6: the “EC50 hGlucagon-R (cAMP formation)” value in test [1] was determined as 0.0086 nM. Further, the “EC50 hGIP-R (cAMP formation)” value in test [2] was 2.16 nM. Also, the “EC50 hGLP-1R (cAMP formation)” value in test [3] was 0.0083 nM.
